Assay results as given in patent US20250250357A1 (NANJING ZAIMING PHARMACEUTICAL, published 2025).

T1: monkey MSLN on HEK293T-monkey MSLN recombinant cells (monkey)
T1 construct: Full-length precursor as transfected; processing on the cell is not described; also called HEK293-monkey MSLN
T1 chain: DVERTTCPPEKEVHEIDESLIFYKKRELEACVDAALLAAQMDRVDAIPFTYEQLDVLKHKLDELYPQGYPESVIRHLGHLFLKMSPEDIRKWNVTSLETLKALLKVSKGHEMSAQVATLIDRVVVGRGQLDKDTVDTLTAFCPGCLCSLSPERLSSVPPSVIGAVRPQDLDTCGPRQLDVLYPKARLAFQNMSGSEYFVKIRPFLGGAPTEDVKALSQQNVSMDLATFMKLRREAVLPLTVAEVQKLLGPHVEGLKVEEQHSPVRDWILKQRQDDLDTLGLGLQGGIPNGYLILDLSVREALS


Assays:
[1] = target: human MSLN on OVCAR3 tumor cells (human, UniProt Q13421 296-598); test: FACS, OVCAR3 cells
Sequence of human MSLN on OVCAR3 tumor cells (Q13421 other isoform, or with tags, fused parts or gaps): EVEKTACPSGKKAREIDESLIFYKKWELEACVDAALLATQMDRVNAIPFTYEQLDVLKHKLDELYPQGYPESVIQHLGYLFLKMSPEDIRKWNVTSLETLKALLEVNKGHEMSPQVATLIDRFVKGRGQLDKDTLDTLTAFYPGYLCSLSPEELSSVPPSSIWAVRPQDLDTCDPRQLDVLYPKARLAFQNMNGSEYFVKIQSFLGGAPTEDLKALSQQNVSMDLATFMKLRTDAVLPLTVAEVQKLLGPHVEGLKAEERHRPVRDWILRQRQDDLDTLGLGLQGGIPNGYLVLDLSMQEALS

[2] = target: T2, human MSLN-R3 on HEK293T-hMSLN-R3 recombinant cells (human, UniProt Q13421 487-606); test: FACS, HEK293T-hMSLN-R3 cells
T2 construct: the C-terminal limit is uncertain; also called human MSLN-R3 membrane protein
T2 sequence (Q13421 495-614): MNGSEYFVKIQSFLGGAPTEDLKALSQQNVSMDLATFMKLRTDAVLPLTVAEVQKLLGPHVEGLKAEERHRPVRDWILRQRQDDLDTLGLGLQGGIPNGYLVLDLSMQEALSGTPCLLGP

[3] = target: T1, monkey MSLN on HEK293T-monkey MSLN …; test: FACS, HEK293T-monkey MSLN cells
[4] = target: T3, human MSLN-FL-his protein (human, UniProt Q13421 296-580); test: ELISA, coated antigen; antibody 0.01 nM
T3 construct: also called human MSLN full-length protein; hMSLN-FL-his; not shown: His tag
T3 sequence (Q13421 other isoform, or with tags, fused parts or gaps): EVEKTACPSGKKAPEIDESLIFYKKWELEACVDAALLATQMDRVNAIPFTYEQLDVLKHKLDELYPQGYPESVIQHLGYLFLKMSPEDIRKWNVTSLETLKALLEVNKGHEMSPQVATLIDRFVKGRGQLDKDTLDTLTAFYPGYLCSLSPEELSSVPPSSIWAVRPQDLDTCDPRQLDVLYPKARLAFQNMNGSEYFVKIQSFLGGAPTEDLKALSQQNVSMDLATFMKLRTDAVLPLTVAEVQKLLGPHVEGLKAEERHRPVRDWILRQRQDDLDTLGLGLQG

[5] = target: T4, human MSLN-R2-his protein (human, UniProt Q13421 391-486); test: ELISA, coated antigen; antibody 0.0001 nM
T4 construct: also called human MSLN-R2 protein; hMSLN-R2-his; not shown: His tag
T4 sequence (Q13421 other isoform, or with tags, fused parts or gaps): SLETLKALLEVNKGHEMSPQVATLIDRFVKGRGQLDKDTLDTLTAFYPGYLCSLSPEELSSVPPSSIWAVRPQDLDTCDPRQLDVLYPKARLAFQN

[6] = target: T4, human MSLN-R2-his protein; test: ELISA, coated antigen; antibody 10 nM
[7] = target: T3, human MSLN-FL-his protein; test: ELISA, coated antigen; antibody 0.1 nM
[8] = target: T3, human MSLN-FL-his protein; test: ELISA, coated antigen; antibody 10 nM
[9] = target: T3, human MSLN-FL-his protein; test: ELISA, coated antigen; antibody 0.001 nM
[10] = target: T5, human MSLN-R1-his protein (human, UniProt Q13421 296-390); test: ELISA, coated antigen; antibody 100 nM
T5 construct: also called human MSLN-R1 protein; hMSLN-R1-his; not shown: His tag
T5 sequence (Q13421 other isoform, or with tags, fused parts or gaps): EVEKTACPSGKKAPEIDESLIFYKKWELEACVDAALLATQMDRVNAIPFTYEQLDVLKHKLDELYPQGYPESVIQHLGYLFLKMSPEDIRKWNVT

[11] = target: T5, human MSLN-R1-his protein; test: ELISA, coated antigen; no antibody (blank, column 'none')
[12] = target: T4, human MSLN-R2-his protein; test: ELISA, coated antigen; antibody 1 nM
[13] = target: T3, human MSLN-FL-his protein; test: ELISA, coated antigen; no antibody (blank, column 'none')
[14] = target: T4, human MSLN-R2-his protein; test: ELISA, coated antigen; antibody 100 nM
[15] = target: T5, human MSLN-R1-his protein; test: ELISA, coated antigen; antibody 0.0001 nM
[16] = target: T5, human MSLN-R1-his protein; test: ELISA, coated antigen; antibody 1 nM
[17] = target: T4, human MSLN-R2-his protein; test: ELISA, coated antigen; antibody 0.01 nM
[18] = target: T5, human MSLN-R1-his protein; test: ELISA, coated antigen; antibody 0.001 nM
[19] = target: T4, human MSLN-R2-his protein; test: ELISA, coated antigen; no antibody (blank, column 'none')
[20] = target: T3, human MSLN-FL-his protein; test: ELISA, coated antigen; antibody 100 nM
[21] = target: T5, human MSLN-R1-his protein; test: ELISA, coated antigen; antibody 0.1 nM
[22] = target: T5, human MSLN-R1-his protein; test: ELISA, coated antigen; antibody 0.01 nM
[23] = target: T4, human MSLN-R2-his protein; test: ELISA, coated antigen; antibody 0.001 nM
[24] = target: T3, human MSLN-FL-his protein; test: ELISA, coated antigen; antibody 1 nM
[25] = target: T5, human MSLN-R1-his protein; test: ELISA, coated antigen; antibody 10 nM
[26] = target: T4, human MSLN-R2-his protein; test: ELISA, coated antigen; antibody 0.1 nM
[27] = target: T3, human MSLN-FL-his protein; test: ELISA, coated antigen; antibody 0.0001 nM
[28] = target: T6, human MSLN-R2-his protein (human, UniProt Q13421 391-486); test: ELISA; antibody 0.1 nM
T6 construct: also called hMSLN-R2-his; not shown: His tag

[29] = target: T6, human MSLN-R2-his protein; test: ELISA; antibody 1 nM
[30] = target: T7, human MSLN-R3-his protein (human, UniProt Q13421 487-598); test: ELISA; antibody 100 nM
T7 construct: also called hMSLN-R3-his; not shown: His tag
T7 sequence (Q13421 495-606): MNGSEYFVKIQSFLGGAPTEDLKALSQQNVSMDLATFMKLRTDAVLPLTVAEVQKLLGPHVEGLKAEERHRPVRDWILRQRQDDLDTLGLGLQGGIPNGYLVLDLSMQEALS

[31] = target: T7, human MSLN-R3-his protein; test: ELISA; antibody 10 nM
[32] = target: T7, human MSLN-R3-his protein; test: ELISA; antibody 0.01 nM
[33] = target: T7, human MSLN-R3-his protein; test: ELISA; antibody 0.001 nM
[34] = target: T6, human MSLN-R2-his protein; test: ELISA; antibody 0.001 nM
[35] = target: T7, human MSLN-R3-his protein; test: ELISA; antibody 0.0001 nM
[36] = target: T7, human MSLN-R3-his protein; test: ELISA; antibody 1 nM
[37] = target: T6, human MSLN-R2-his protein; test: ELISA; antibody 1 nM; remark: listed apart in the source
[38] = target: T6, human MSLN-R2-his protein; test: ELISA; antibody 100 nM
[39] = target: T7, human MSLN-R3-his protein; test: ELISA; antibody 1 nM; remark: listed apart in the source
[40] = target: T6, human MSLN-R2-his protein; test: ELISA; antibody 0.01 nM
[41] = target: T6, human MSLN-R2-his protein; test: ELISA; antibody 0.0001 nM
[42] = target: T6, human MSLN-R2-his protein; test: ELISA; antibody 10 nM
[43] = target: T6, human MSLN-R2-his protein; test: ELISA; antibody 0 nM (blank)
[44] = target: T7, human MSLN-R3-his protein; test: ELISA; antibody 0 nM (blank)
[45] = target: T7, human MSLN-R3-his protein; test: ELISA; antibody 0.1 nM

| EC50 [1] | Maximum_MFI [1] | EC50 [2] | Maximum_MFI [2] | EC50 [3] | Maximum_MFI [3] | OD450 [4] | OD450 [5] | OD450 [6] | OD450 [7] | OD450 [8] | OD450 [9] | OD450 [10] | OD450 [11] | OD450 [12] | OD450 [13] | OD450 [14] | OD450 [15] | OD450 [16] | OD450 [17] | Binder | further results |
| --- | --- | --- | --- | --- | --- | --- | --- | --- | --- | --- | --- | --- | --- | --- | --- | --- | --- | --- | --- | --- | --- |
| 2.42 nM | 1600 MFI | 1.27 nM | 1450 MFI | 8.38 nM | 7040 MFI |  |  |  |  |  |  |  |  |  |  |  |  |  |  | F7.44.20 (scFv) EVQLQQSGPELVKPGASVKIPCKASGYTFTDYNMDWVKQSHGKSLEWIGDINPSTGGTIYNQKFNGKATLTEDKSASTVYMEFRSLTSDDTAVYYCARRRIGTGYFDVWGTGTTVTVSSGGGGSGGGGSGGGGSQIVLTQSPALMSASPGEKVTLTCSASSSVISSYLSWYQQKPGSSPKLLIYRTSNLASGVPARFSGSGSGTSYSLTISSMEAEDAASYFCHQWSSFPYTFGGGTKLEIK |  |
|  |  |  |  |  |  | 0.04 OD450 | 0.04 OD450 | 0.06 OD450 | 0.04 OD450 | 0.19 OD450 | 0.04 OD450 | 0.09 OD450 | 0.04 OD450 | 0.04 OD450 | 0.05 OD450 | 0.13 OD450 | 0.05 OD450 | 0.04 OD450 | 0.04 OD450 | S009-F5-9.16 (antibody, human IgG1, kappa, V domains shown, Human-murine chimeric antibody, human IgG1/kappa constant regions) VH: EVQLRQSGPVLVKPGASVKMSCKASGYTFTDYFMNWVKPSHGKSLEWIGVINPSNGVINYNQRFKGKATLTVDKSSSTAYMELNSLTSEDSAVYYCARSYDFAWFAYWGQGTLVTVSA VL: DVLMTQTPLSLPVSLGDQASISCRSSQNIVHSNGNTYLEWYLQKPGQSPKLLIYTVSNRFSGVPDRFSGSGSGTDFTLKISRVEAEDLGVYYCFQGSHVPYTFGGGTKLEIKR | OD450 [18]: 0.04 OD450; OD450 [19]: 0.05 OD450; OD450 [20]: 1.12 OD450; OD450 [21]: 0.04 OD450; OD450 [22]: 0.04 OD450; OD450 [23]: 0.04 OD450; OD450 [24]: 0.06 OD450; OD450 [25]: 0.05 OD450; OD450 [26]: 0.04 OD450; OD450 [27]: 0.04 OD450 |
| 1.09 nM | 2920 MFI | 0.48 nM | 1850 MFI | 2.97 nM | 11100 MFI |  |  |  |  |  |  |  |  |  |  |  |  |  |  | F7.44.20-VL-VH (scFv) QIVLTQSPALMSASPGEKVTLTCSASSSVISSYLSWYQQKPGSSPKLLIYRTSNLASGVPARFSGSGSGTSYSLTISSMEAEDAASYFCHQWSSFPYTFGGGTKLEIKGGGGSGGGGSGGGGSEVQLQQSGPELVKPGASVKIPCKASGYTFTDYNMDWVKQSHGKSLEWIGDINPSTGGTIYNQKFNGKATLTEDKSASTVYMEFRSLTSDDTAVYYCARRRIGTGYFDVWGTGTTVTVSS |  |
|  |  |  |  |  |  | 1.09 OD450 | 0.05 OD450 | 0.2 OD450 | 2.4 OD450 | 2.87 OD450 | 0.29 OD450 | 0.06 OD450 | 0.04 OD450 | 0.12 OD450 | 0.05 OD450 | 0.33 OD450 | 0.04 OD450 | 0.04 OD450 | 0.04 OD450 | S009-F6-76.1 (antibody, human IgG1, kappa, V domains shown, Human-murine chimeric antibody, human IgG1/kappa constant regions) VH: QVQLQQSGPELVKPGASVKISCKASGYTFTDYYINWVKQRPGQGLEWIGWIFPGRGSTFYYEKFKGKATLTVDKSSSTAYMLLSSLTSEDSAVYFCARRGDSAGYEDLDYWGQGTSVTVSS VL: NIVMTQSPKFMSMSVGERVTLSCKASENVVTYVSWYQQKPKQSPKLLIYGASKRYTGVPDRFTGSGSATDFTLTISSVQAEDLGDYHCGQSYSYPYTFGGGTKLEIKR | OD450 [18]: 0.04 OD450; OD450 [19]: 0.05 OD450; OD450 [20]: 2.83 OD450; OD450 [21]: 0.04 OD450; OD450 [22]: 0.04 OD450; OD450 [23]: 0.04 OD450; OD450 [24]: 2.87 OD450; OD450 [25]: 0.04 OD450; OD450 [26]: 0.07 OD450; OD450 [27]: 0.1 OD450 |
|  |  |  |  |  |  |  |  |  |  |  |  |  |  |  |  |  |  |  |  | Tab106 (YP218, hIgG1) (antibody, V domains shown, Control antibody; VH and VL recombined into human IgG1 CH and CL expression vectors; also called YP218 human IgG1 antibody; anti-human MSLN-R3 antibody) VH: QQQLEESGGGLVKPEGSLTLTCKASGFDLGFYFYACWVRQAPGKGLEWIACIYTAGSGSTYYASWAKGRFTISKASSTTVTLQMTSLAAADTATYFCARSTANTRSTYYLNLWGPGTLVTVSS VL: DVVMTQTPASVSEPVGGTVTIKCQASQRISSYLSWYQQKPGQRPKLLIFGASTLASGVPSRFKGSGSGTEYTLTISDLECADAATYYCQSYAYFDSNNWHAFGGGTEVVVRT | OD450 nm [28]: 0.05; OD450 nm [29]: 0.05; OD450 nm [30]: 2.29; OD450 nm [31]: 1.75; OD450 nm [32]: 0.06; OD450 nm [33]: 0.05; OD450 nm [34]: 0.04; OD450 nm [35]: 0.05; OD450 nm [36]: 0.62; OD450 nm [37]: 0.05; OD450 nm [38]: 0.7; OD450 nm [39]: 0.62; OD450 nm [40]: 0.04; OD450 nm [41]: 0.04; OD450 nm [42]: 0.11; OD450 nm [43]: 0.05; OD450 nm [44]: 0.05; OD450 nm [45]: 0.12 |
